Test [1] concerns the target T1, recombinant VEGFR-2 protein (water soluble extracellular site of human VEGFR-2 with Fc of human IgG1 … (human, UniProt P35968 20-764)).
T1 construct: extracellular domain; Bought; not shown: Fc of human IgG1
The test can be described thus: competitive ELISA; synergibody titrated with 1 nM VEGFR-2 on coated VEGF 165. How it is done: Competitive ELISA is performed using the peptides synthesized above in Section 6A in order to assess the molecular interaction of the binders. […] Then the plate is washed five times with PBS containing 0.1% Tween-20, and blocked at room temperature for two hours with PBS containing 5% BSA. For VEGF:VEGFR-2 neutralization ELISA, each of the peptides synthesized in Section 6A above are diluted to one-fourth each time from 100 nM with PBS containing 1 nM VEGFR-2 and 1% BSA, and adjusted to 6.1 pM. 100 μl of peptide/VEGFR-2 solution is added to each well and the plate is left to react at room temperature for two hours. Subsequently, it is washed five times with PBS containing 0.1% Tween-20, mouse anti-VEGFR-2 antibodies (R&D Systems) is diluted to about 1:3,000 with PBS containing 1% BSA, and left to react at room temperature for one hour. Then 100 μl of goat anti-mouse-IgG-HRP (Pierce) diluted to about 1:10,000 with PBS containing 1% BSA is added to each well of the plate, left to react at room temperature for one hour, and washed five times with PBS containing 0.1% Tween-20. Lastly, 100 μl of TMB substrate (SIGMA) is added to each well of the plate to induce color reaction. The reaction is stopped by adding 50 μl of 5N H₂SO₄ solution, and the OD₄₅₀ value is read on a plate reader (Molecular Devices). Through the foregoing, the IC₅₀ value for the VEGF:VEGFR-2 binding capacity is obtained.
The method in Example 2, Section 6B above is used, except that, in the present example, each fused protein synergibodies are diluted from 100 nM to one-fourth each time with PBS containing 1% BSA and 1nM VEGFR-2 and adjusted to 6.1 pM for VEGF:VEGF-2 neutralization ELISA.

Test [2] concerns the target T2, recombinant hAng-2 (recombinant protein with His tag attached to human Ang-2; R&D Systems) (human, UniProt O15123 19-496).
T2 construct: also called angiopoietin-2; ANGPT2
T2 sequence (looked up): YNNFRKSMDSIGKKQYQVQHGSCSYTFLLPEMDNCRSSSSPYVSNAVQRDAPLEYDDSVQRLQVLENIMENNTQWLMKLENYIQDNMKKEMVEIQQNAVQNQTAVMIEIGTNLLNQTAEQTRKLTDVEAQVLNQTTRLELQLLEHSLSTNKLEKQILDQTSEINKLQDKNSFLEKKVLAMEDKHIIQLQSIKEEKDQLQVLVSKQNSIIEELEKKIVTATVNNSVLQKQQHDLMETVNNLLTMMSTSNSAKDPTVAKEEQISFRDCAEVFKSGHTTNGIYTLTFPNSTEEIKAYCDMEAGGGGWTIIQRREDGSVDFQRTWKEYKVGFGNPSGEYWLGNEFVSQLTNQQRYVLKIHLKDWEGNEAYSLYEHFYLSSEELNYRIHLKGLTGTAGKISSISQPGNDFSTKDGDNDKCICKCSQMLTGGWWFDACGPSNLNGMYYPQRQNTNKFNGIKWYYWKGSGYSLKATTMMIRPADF
The test can be described thus: competitive ELISA; synergibody titrated with 1 nM hAng-2 (His) on coated hTie2-Fc. As for the experimental part:
A competitive ELISA is performed to assess the molecular interaction of the binders. A 96-well MaxiSorp™ flat-bottom plate (Nunc) is coated with hTie2-Fc (R&D Systems), which is a fused protein including the water-soluble extracellular portion of human Tie-2 and Fc of human IgG₁ dissolved in DMEM culture solution containing 50 μg/ml bovine serum albumin (BSA). The concentration of hTie2-Fc used as a coating material is equivalent to 75% of its maximum binding concentration with 1 nM of recombinant hAng-2 (recombinant protein with His tag attached to human Ang-2; R&D Systems). Then the plate is washed five times with Phosphate Buffer Saline (PBS) containing 0.1% Tween-20 and blocked at room temperature for two hours with PBS containing 5% BSA. Each anti-Ang-2 antibodies are diluted from 100 nM by one-fourth each time with PBS containing 1% BSA and 1 nM hAng-2 and adjusted to 6.1 pM for Ang-2:Tie-2 neutralization ELISA. 100 μl of antibody/hAng-2 solutions are placed in each corresponding well and left to react at room temperature for two hours. Then the wells are washed five times with PBS containing 0.1% Tween-20, and the anti-His antibodies (GE Healthcare) are diluted to about 1:3,000 with PBS containing 1% BSA and left to react at room temperature for one hour. Afterwards, 100 μl of goat anti-mouse-IgG-HRP (Pierce) diluted with PBS containing 1% BSA to about 1:10,000 is added to each well of the plate, left to react at room temperature for one hour, and washed with PBS containing 0.1% Tween-20 five times. Lastly, 100 μl of TMB substrate (SIGMA) is added to each well of the plate to induce color reaction, and the reaction is stopped by adding 50 μl of 5N H₂SO₄ solution. The OD₄₅₀ value is read on a plate reader (Molecular Devices).
The method described in Example 1, Section 3 above is used, except that, in the present example, each fused protein synergibodies are diluted from 100 nM to one-fourth each time with PBS containing 1% BSA and 1 nM hAng-2 and adjusted to 6.1 pM for Ang-2:Tie-2 neutralization ELISA.

T1 sequence (P35968 20-764): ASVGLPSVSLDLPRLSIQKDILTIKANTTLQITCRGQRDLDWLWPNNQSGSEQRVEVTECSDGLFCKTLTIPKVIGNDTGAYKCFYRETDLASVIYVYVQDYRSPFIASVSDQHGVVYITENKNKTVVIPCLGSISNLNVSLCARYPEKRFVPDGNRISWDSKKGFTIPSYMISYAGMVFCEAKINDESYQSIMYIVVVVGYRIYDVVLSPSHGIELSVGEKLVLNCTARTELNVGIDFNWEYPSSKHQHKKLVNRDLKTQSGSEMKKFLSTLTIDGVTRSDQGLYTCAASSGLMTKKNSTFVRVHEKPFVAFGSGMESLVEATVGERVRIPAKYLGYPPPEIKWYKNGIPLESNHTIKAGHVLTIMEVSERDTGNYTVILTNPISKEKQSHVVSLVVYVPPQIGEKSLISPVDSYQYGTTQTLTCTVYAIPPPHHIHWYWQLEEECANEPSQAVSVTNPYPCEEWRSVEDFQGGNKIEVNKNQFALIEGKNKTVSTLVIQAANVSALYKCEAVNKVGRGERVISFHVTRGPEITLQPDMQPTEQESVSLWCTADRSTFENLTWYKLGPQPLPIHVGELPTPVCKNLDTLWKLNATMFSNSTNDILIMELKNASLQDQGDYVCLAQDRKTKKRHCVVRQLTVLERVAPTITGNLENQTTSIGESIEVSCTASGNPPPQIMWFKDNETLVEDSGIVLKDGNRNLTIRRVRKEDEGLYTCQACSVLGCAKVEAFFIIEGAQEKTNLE

B1: Syn-Ang-VEGFR-6 (other)
heavy (part 1 of 2): QVQLQQSGPELVKPGASVKMSCKASGYTFTDYVISWVKQRTGQGLEWIGEIYPGSGSTYYNEKFKGKASLTADKSSNTAYMQLSSLTSADSAVYFCVRSRGDYYAMDYWGQGTSVTVSS
heavy (part 2 of 2): TGSDDLCYTFPCMHY
light: DIQMTQSPSSLSASLGGKVTITCKASQDINNYITWYQHKPGKGPRLLIHYTSTLQPGIPSRFSGSGSGRDYSFSISNLEPEDIATYYCLQYDNLLTFGGGTKLEIK
notes: Chimeric (human IgG1) SAITAng-2-2 with the peptide at the C-terminus of the heavy chain; also called SAITAng-2-2 x DTN6VEGFR-2-1; not shown: human IgG1 heavy chain constant region with Fc region, from the vector; human light chain constant region, printed as 'constant region of human IgG1'
In the case of B1, the IC50 in test [1] turned out to be 1.56 nM; in test [2], 1.91 nM.

B2: Syn-Ang-VEGFR-7 (other)
heavy (part 1 of 2): QVQLQQSGPELVKPGASVKMSCKASGYTFTDYVISWVKQRTGQGLEWIGEIYPGSGSTYYNEKFKGKASLTADKSSNTAYMQLSSLTSADSAVYFCVRSRGDYYAMDYWGQGTSVTVSS
heavy (part 2 of 2): EAGKETCGYEWQYCPRP
light: DIQMTQSPSSLSASLGGKVTITCKASQDINNYITWYQHKPGKGPRLLIHYTSTLQPGIPSRFSGSGSGRDYSFSISNLEPEDIATYYCLQYDNLLTFGGGTKLEIK
notes: Chimeric (human IgG1) SAITAng-2-2 with the peptide at the C-terminus of the heavy chain; also called SAITAng-2-2 x DTN8VEGFR-2-2; not shown: human IgG1 heavy chain constant region with Fc region, from the vector; human light chain constant region, printed as 'constant region of human IgG1'
With B2, the IC50 was 1.76 nM in test [1] and 2.01 nM in test [2].

B3: Syn-Ang-VEGFR-10 (other)
heavy (part 1 of 2): QVQLQQSGPELVKPGASVKMSCKASGYTFTDYVISWVKQRTGQGLEWIGEIYPGSGSTYYNEKFKGKASLTADKSSNTAYMQLSSLTSADSAVYFCVRSRGDYYAMDYWGQGTSVTVSS
heavy (part 2 of 2): PGSQGYCHLNMRYQWICDSE
light: DIQMTQSPSSLSASLGGKVTITCKASQDINNYITWYQHKPGKGPRLLIHYTSTLQPGIPSRFSGSGSGRDYSFSISNLEPEDIATYYCLQYDNLLTFGGGTKLEIK
notes: Chimeric (human IgG1) SAITAng-2-2 with the peptide at the C-terminus of the heavy chain; also called SAITAng-2-2 x DTN11VEGFR-2-5; not shown: human IgG1 heavy chain constant region with Fc region, from the vector; human light chain constant region, printed as 'constant region of human IgG1'
Turning to B3, the IC50 in test [1] stood at 2.16 nM; in test [2], 2 nM.

B4: Syn-Ang-VEGFR-9 (other)
heavy (part 1 of 2): QVQLQQSGPELVKPGASVKMSCKASGYTFTDYVISWVKQRTGQGLEWIGEIYPGSGSTYYNEKFKGKASLTADKSSNTAYMQLSSLTSADSAVYFCVRSRGDYYAMDYWGQGTSVTVSS
heavy (part 2 of 2): TGSGRMCDGSGPPTNCWFT
light: DIQMTQSPSSLSASLGGKVTITCKASQDINNYITWYQHKPGKGPRLLIHYTSTLQPGIPSRFSGSGSGRDYSFSISNLEPEDIATYYCLQYDNLLTFGGGTKLEIK
notes: Chimeric (human IgG1) SAITAng-2-2 with the peptide at the C-terminus of the heavy chain; also called SAITAng-2-2 x DTN10VEGFR-2-4; not shown: human IgG1 heavy chain constant region with Fc region, from the vector; human light chain constant region, printed as 'constant region of human IgG1'
With B4, the IC50 in test [1] is 2.04 nM; in test [2], 1.95 nM.

B5: Syn-Ang-VEGFR-8 (other)
heavy (part 1 of 2): QVQLQQSGPELVKPGASVKMSCKASGYTFTDYVISWVKQRTGQGLEWIGEIYPGSGSTYYNEKFKGKASLTADKSSNTAYMQLSSLTSADSAVYFCVRSRGDYYAMDYWGQGTSVTVSS
heavy (part 2 of 2): EAGAYWCKAWGLSPCLVT
light: DIQMTQSPSSLSASLGGKVTITCKASQDINNYITWYQHKPGKGPRLLIHYTSTLQPGIPSRFSGSGSGRDYSFSISNLEPEDIATYYCLQYDNLLTFGGGTKLEIK
notes: Chimeric (human IgG1) SAITAng-2-2 with the peptide at the C-terminus of the heavy chain; also called SAITAng-2-2 x DTN9VEGFR-2-3; not shown: human IgG1 heavy chain constant region with Fc region, from the vector; human light chain constant region, printed as 'constant region of human IgG1'
Take B5: the IC50 stood at 1.48 nM in test [1] and 2.22 nM in test [2].

B6: Syn-Ang-VEGFR-16 (other)
heavy (part 1 of 2): QVQLQQSGAELARPGASVKLSCKASGYTFTDYYINWAKQRTGQGLEWIGEIYPGSGDTYYNEKFKGKATLTADKSSSTAYMQLSSLTSEDSAVYFCARYGYKGVYFDYWGQSTTLTVSS
heavy (part 2 of 2): TGSDDLCYTFPCMHY
light: ENVLTQSPAIMAASLGQKVTMTCSASSSVSSSYLHWYQQKSGASPKPLIHRTSNLASGVPARFSGSGSGTSYSLTISSVEAEDDATYYCQQWSGYPFTFGAGTKLELK
notes: Chimeric (human IgG1) SAITAng-2-4 with the peptide at the C-terminus of the heavy chain; also called SAITAng-2-4 x DTN6VEGFR-2-1; not shown: human IgG1 heavy chain constant region with Fc region, from the vector; human light chain constant region, printed as 'constant region of human IgG1'
With B6, the IC50 in test [1] worked out at 1.16 nM; in test [2] it was 1.22 nM.
